# B1: Beta-secretase 1 (Homo sapiens), P56817 (parent)
# chain: MAQALPWLLLWMGAGVLPAHGTQHGIRLPLRSGLGGAPLGLRLPRETDEEPEEPGRRGSFVEMVDNLRGKSGQGYYVEMTVGSPPQTLNILVDTGSSNFAVGAAPHPFLHRYYQRQLSSTYRDLRKGVYVPYTQGKWEGELGTDLVSIPHGPNVTVRANIAAITESDKFFINGSNWEGILGLAYAEIARPDDSLEPFFDSLVKQTHVPNLFSLQLCGAGFPLNQSEVLASVGGSMIIGGIDHSLYTGSLWYTPIRREWYYEVIIVRVEINGQDLKMDCKEYNYDKSIVDSGTTNLRLPKKVFEAAVKSIKAASSTEKFPDGFWLGEQLVCWQAGTTPWNIFPVISLYLMGEVTNQSFRITILPQQYLRPVEDVATSQDDCYKFAISQSSTGTVMGAVIMEGFYVVFDRARKRIGFAVSACHVHDEFRTAAVEGPFVTLDMEDCGYNIPQTDESTLMTIAYVMAAICALFMLPLCLMVCQWRCLRCLRQQHDDFADDISLLK
# partner: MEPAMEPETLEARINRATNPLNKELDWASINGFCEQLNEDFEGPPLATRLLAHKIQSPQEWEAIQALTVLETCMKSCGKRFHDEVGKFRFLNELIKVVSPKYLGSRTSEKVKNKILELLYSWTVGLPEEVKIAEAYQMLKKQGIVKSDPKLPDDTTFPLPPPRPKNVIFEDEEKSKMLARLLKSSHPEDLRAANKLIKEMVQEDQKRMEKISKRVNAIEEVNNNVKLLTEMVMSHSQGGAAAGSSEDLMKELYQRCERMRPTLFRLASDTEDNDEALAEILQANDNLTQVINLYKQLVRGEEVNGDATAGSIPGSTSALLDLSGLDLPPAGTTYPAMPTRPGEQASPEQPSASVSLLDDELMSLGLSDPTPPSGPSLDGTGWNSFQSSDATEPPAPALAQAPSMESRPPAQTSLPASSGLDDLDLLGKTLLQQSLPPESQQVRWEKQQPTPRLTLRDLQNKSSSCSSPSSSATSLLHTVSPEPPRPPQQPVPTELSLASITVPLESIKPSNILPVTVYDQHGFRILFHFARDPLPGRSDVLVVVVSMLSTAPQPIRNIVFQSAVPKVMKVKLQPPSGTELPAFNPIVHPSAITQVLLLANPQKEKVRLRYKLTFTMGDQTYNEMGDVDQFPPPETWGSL
# Variants of: B1
# Details: with gga1_human GGA1, Q9UJY5
row,Variant,effect of a mutation on the interaction
1,S498A,decreasing interaction strength
2,S498D,with no effect
